B1: Zinc finger homeobox protein 4, residues 2183 to 2238; numbered along this chain, Q86UP3 (parent)
chain: SSRTRFTDYQLRVLQDFFDTNAYPKDDEIEQLSTVLNLPTRVIVVWFQNARQKARK

Variants of: B1
Experiment: abundance fitness (aPCA) (normalised: wild type 0, dead -1); higher = more abundant; growth selection in yeast, the domain comes from the species named
Conditions: Homo sapiens

Abundance fitness: each site, then its substitutions
R3: G 0.297; V 0.334; I 0.489; F 0.32; W 0.253; C 0.484; L 0.358; H 0.367; N 0.364; Y 0.198; A 0.358
R12: G -0.147; A -0.263; M -0.631; P -0.608; N -0.017; F -0.81; H -0.166; L -0.309; C -0.732; I -0.623
T7: D -0.081; C -0.586; K -0.455; R -0.67; H -0.597; W -0.719; M -0.278; S -0.014; V -0.299; Y -0.574; P -0.368; L -0.384; Q -0.27; G -0.333; A -0.14
R5: P 0.001; W -0.11; L 0.193; Y 0.213; G -0.109; M 0.309; Q -0.241; I 0.238; T 0.22; V 0.133; C 0.272; D 0.338; E 0.218; H 0.194; N 0.358; K 0.195
Y9: N 0.057; C -0.102; T 0.167; E 0.081; F 0.261; Q 0.283; V -0.038; A 0.167; M 0.025; W 0.02; R 0.11; D -0.128; I -0.351; S 0.14; G 0.062; K 0.318
T4: N 0.047; L 0.072; G -0.328; C -0.446; F -0.182; R -0.533; K -0.571; S 0.019; P -0.109; D 0.015; M 0.392; W -0.433; Q -0.269; H 0.096; Y 0.323; E -0.368; V -0.602; A -0.698
F6: L -0.122; Y -0.124; A -0.654; E -0.344; K -0.522; H -0.328; V -0.133; R -0.726; N -0.375; I -0.09; G -0.335; D -0.09; P -0.697; C -0.094; T -0.266; Q -0.568; M 0.111; W -0.257
L11: G -0.016; N 0.053; C -0.341; V -0.024; M -0.061; I -0.031; R -0.26; E 0.095; D 0.066; H -0.204; T -0.063; A -0.108; F -0.011; S 0.138; P -1.19; Y -0.194
S1: M 0.045; F 0.106; A 0.062; G 0.276; T -0.009; P -0.575; C 0.092; Y -0.241; W -1.16; I -0.026
S2: D 0.254; L -0.144; A -0.407; F -0.229; P -0.012; E 0.195; M 0.102; V -0.043; K 0.053; H -0.106; Q 0.262; Y -0.07; C 0.197; N 0.125; G -0.004; W -0.477; T 0.151; I -0.059; R -0.106
D8: T -0.257; E -0.151; A -0.106; I -0.511; G -0.225; H 0.124; M -0.125; N -0.351; P 0.096; F -0.361; V -0.282; Q 0.103; W -0.58; Y -0.662; C -0.136; L -0.229; R -0.309; S -0.315
